# Measurements from the supplement of paper PMC12764529.
# ± gives the half width of the 95% confidence interval.
# Assays:
# [1] = folding stability dG unfold from trypsin proteolysis; higher = more stable
# In short: (§1)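 Bayesian fitting of sequencing counts gave K50 for each design. Unfolding free energy followed by setting this against a sequence-predicted unfolded-state K50 and a shared folded-state K50, either per protease or with trypsin and chymotrypsin combined. The designs, under 80 residues and lacking cysteine, were digested in a PA-tagged cDNA display format at 11 threefold-diluted protease concentrations and without protease, and only those with AlphaFold2 dimer inter-PAE above 15 were kept.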
# [2] = folding stability dG unfold from chymotrypsin proteolysis; higher = more stable
# In short: as §1
# [3] = folding stability dG unfold (combined trypsin and chymotrypsin); higher = more stable
# In short: as §1
Sequence,folding stability dG unfold [1],folding stability dG unfold [2],folding stability dG unfold [3]
SAGGSAGGKEKLIVKIKIEKKVKLENGEEKKVKKTIVVEMTPEEVKELLKKLKKENVTEVEIFPSAGGSAGG [r6_984_TrROS_Hall],2.7 ± 0.17 kcal/mol,2.51 ± 0.31 kcal/mol,2.55 ± 0.26 kcal/mol
SAGGSAGGKEVKIEIYDSDDGILLVEVPDLDDAVEAVEKLGVELELVPYDPEKGRLLLRLRIPGSAGGSAGG [r6_510_TrMRF],0.26 ± 0.21 kcal/mol,0.8 ± 0.2 kcal/mol,0.64 ± 0.16 kcal/mol
SAGGSAGGKGGKPKIKLEPINTNPNGWQTFRFEVTPEAIDDLMDDFPNVQVERHPGEMYITVRNSAGGSAGG [r6_395_TrROS],-0.418 ± 0.56 kcal/mol,-0.0427 ± 0.39 kcal/mol,-0.104 ± 0.23 kcal/mol
SAGGSAGGKIAVIPYVPEEDIPPELRELFGKEGSLSPEEFQELFAEAVARELGEEGAIDAVIVESAGGSAGG [r6_654_TrMRF],0.618 ± 0.032 kcal/mol,0.721 ± 0.037 kcal/mol,0.778 ± 0.15 kcal/mol
SAGGSAGGKIEEIAKKLNLEVESIEYDKETKKVTVTIKVNGKLYKIEIYVENGKIVKIKIEELPSAGGSAGG [r6_373_TrROS_Hall],3.3 ± 0.2 kcal/mol,4.3 ± 0.25 kcal/mol,4.01 ± 0.23 kcal/mol
SAGGSAGGKIIINGKEIEPGETITLPNGLKLEVVDGKIKLVVRDEETGEEKEITLSAEELKKLLSAGGSAGG [r6_940_TrROS_Hall],2.65 ± 0.12 kcal/mol,3.26 ± 0.086 kcal/mol,3.09 ± 0.061 kcal/mol
SAGGSAGGKILVIEIEVDSPEKAVEKAKEIVKELGLPESVKIKEIVFFKEEGDKYRALVLVDLDSAGGSAGG [r6_282_TrMRF],3.66 ± 0.23 kcal/mol,4.09 ± 0.095 kcal/mol,3.95 ± 0.2 kcal/mol
SAGGSAGGKIRVEVEVEPLPGPEEGGRLLRVRVRVYNENGELLEEIEFPARSPEEAEERLRKAASAGGSAGG [r6_974_TrMRF],2.05 ± 0.044 kcal/mol,3.46 ± 0.082 kcal/mol,3.15 ± 0.14 kcal/mol
SAGGSAGGKITINGKEYEIVEVKYDKETNTLHFLIKNKDGTLLKISISPNGKIEIKEVPAEELLSAGGSAGG [r6_699_TrROS_Hall],3.41 ± 0.23 kcal/mol,3.74 ± 0.12 kcal/mol,3.78 ± 0.23 kcal/mol
SAGGSAGGKKEIKIYLVSDLPEEDAIETAEKIKKGLAEELGVSPEELNITVEVAILDPENLELNPESAGGSA [r15_918_TrMRF],0.179 ± 0.049 kcal/mol,0.0161 ± 0.048 kcal/mol,0.1 ± 0.15 kcal/mol
SAGGSAGGKKIEMKIIKNEDGTKLIVFKSKEEAEEALKKAGYEVKIVSVNEEKGYVVIEIRKKKSAGGSAGG [r6_510_TrROS_Hall],1.17 ± 0.043 kcal/mol,2.21 ± 0.04 kcal/mol,1.9 ± 0.072 kcal/mol
SAGGSAGGKKKKKPPKKKYFYVEIEIELTPEEIEKLKELFPDVKVEVEEKDGKLRVRITVRVKLSAGGSAGG [r6_685_TrROS_Hall],2.79 ± 0.16 kcal/mol,3.48 ± 0.05 kcal/mol,3.26 ± 0.087 kcal/mol
SAGGSAGGKKKVIEITVKITLFNENGEEVATFEAKITIIEDKETKEYYAVITFKDGSTLVIKLPSAGGSAGG [r6_923_TrROS_Hall],3.69 ± 0.2 kcal/mol,5.12 ± 0.2 kcal/mol,4.87 ± 0.47 kcal/mol
SAGGSAGGKKKYRALITLRSKDGKPIAPIEIETDSPEELLKTAKKIIEEATKENEPVEIKVEEYSAGGSAGG [r6_285_TrMRF],1.09 ± 0.054 kcal/mol,1.8 ± 0.093 kcal/mol,1.59 ± 0.11 kcal/mol
SAGGSAGGKKVIVKIKIKVKDKETGEEKEIEITLEFETEEEAKAAIEALKALPPGVEIKIELLPSAGGSAGG [r6_999_TrROS_Hall],4.42 ± 0.21 kcal/mol,2.72 ± 0.097 kcal/mol,4.19 ± 0.28 kcal/mol
SAGGSAGGKKYRVVVYNPETGEWVEVEEVEFDPETGEVRVRLPGSGKEVTIPKDYPVYLNPELDSAGGSAGG [r6_884_TrMRF],2.21 ± 0.035 kcal/mol,3.163 ± 0.03 kcal/mol,2.9 ± 0.045 kcal/mol

Sequence,folding stability dG unfold [1],folding stability dG unfold [2],folding stability dG unfold [3]
SAGGSAGGKLKKFKIKEIKIEKNKETNTYTVTITLENGEKLTITAKSKEDAEKALRKLKEAGLLSAGGSAGG [r6_65_TrROS_Hall],2.81 ± 0.086 kcal/mol,3.39 ± 0.098 kcal/mol,3.02 ± 0.2 kcal/mol
SAGGSAGGKLSIPIHIPGLTPEEARKIVKYFAAAGIPPDNVTIEVQPVPPVPPMTPEEMEKHNKSAGGSAGG [r6_246_TrROS],-0.288 ± 0.24 kcal/mol,0.988 ± 0.13 kcal/mol,0.614 ± 0.2 kcal/mol
SAGGSAGGKPEVKITLVIEVETEEELKALAEELAALLGAEVEVRVERREDGRLLVTVTITVPAESAGGSAGG [r6_719_TrROS_Hall],3.28 ± 0.14 kcal/mol,2.77 ± 0.12 kcal/mol,2.97 ± 0.096 kcal/mol
SAGGSAGGKPKIIEEKELEFTRKDGKKVKIKLVKNEDGKVFAFNKDTGKVITLPLDELKALLKSSAGGSAGG [r6_579_TrROS_Hall],1.87 ± 0.052 kcal/mol,2.37 ± 0.024 kcal/mol,2.27 ± 0.054 kcal/mol
SAGGSAGGKPKMTFPITDIYPPPGGGNVFIRIQSDDKPREFPFPNLENLEIEKDPEDGTVKIKWSAGGSAGG [r6_806_TrROS],0.129 ± 0.36 kcal/mol,0.307 ± 0.39 kcal/mol,-0.0766 ± 0.31 kcal/mol
SAGGSAGGKSYVRLEVYRRNPETDEWEKIRTEVLETDAASGEEVRRRALERVPEDYLVKVELFPSAGGSAGG [r6_623_TrMRF],2.01 ± 0.046 kcal/mol,2.872 ± 0.028 kcal/mol,2.62 ± 0.062 kcal/mol
SAGGSAGGKTIEITIKLEDGKELKIKIDSPEELDKITSVELIGPGKIKITVNGKTIEITIKPKPSAGGSAGG [r6_206_TrROS_Hall],3.45 ± 0.14 kcal/mol,2.77 ± 0.072 kcal/mol,3.2 ± 0.16 kcal/mol
SAGGSAGGKVRVITVKPGETITVEGLPPGAVLITLPDGSVKEFPAGATIKVPPSAEIVVVEKEDSAGGSAGG [r6_866_TrROS_Hall],0.486 ± 0.022 kcal/mol,0.885 ± 0.04 kcal/mol,0.778 ± 0.1 kcal/mol
SAGGSAGGKYEIVEVEEKEVNGEKYLIFKVKNENGEELLITVSKEDAEKILASLPPGATVEILPSAGGSAGG [r6_111_TrROS_Hall],3.49 ± 0.56 kcal/mol,3.76 ± 0.14 kcal/mol,3.84 ± 0.25 kcal/mol
SAGGSAGGLEEELKLAKENPGEFEGVTVKLESVIEVTTTDPTTGKPTTKLVRVESEITFPPGLKSAGGSAGG [r6_560_JUSTAS],0.2 ± 0.13 kcal/mol,1.05 ± 0.1 kcal/mol,0.834 ± 0.2 kcal/mol
SAGGSAGGLPPGQSIEIFIFSMFPTPNGNLNLEMIQITIRIRPVVRKPDNGGEKYVPPDDPDLASAGGSAGG [r6_405_TrROS],2.87 ± 0.11 kcal/mol,4.36 ± 0.22 kcal/mol,3.97 ± 0.16 kcal/mol
SAGGSAGGLRVVKPEKVVEAIRKIRELVPKNYLVIVDSIEVREEGGKLYVDIPVLVLPVPPELLSAGGSAGG [r6_819_TrMRF],1.54 ± 0.027 kcal/mol,1.79 ± 0.072 kcal/mol,1.65 ± 0.16 kcal/mol
SAGGSAGGMEVVELTVDELRALLPPGAVLLVYNRKTRKLYEIPVEELEALLKPGDKVRVVVLPPSAGGSAGG [r6_893_TrROS_Hall],3.62 ± 0.17 kcal/mol,4.39 ± 0.074 kcal/mol,4.17 ± 0.25 kcal/mol
SAGGSAGGMFIALVTITLPNGEKITDLAFFESPEKIYVLNLKDGKWSEPKVEDIKVVPLEELLFSAGGSAGG [r6_558_TrMRF],1.92 ± 0.12 kcal/mol,2.73 ± 0.069 kcal/mol,2.41 ± 0.18 kcal/mol
SAGGSAGGMIIRITTKNGKTLEIKAKSLEEAKAAIAEKLGLSKENIKPEDITKVEIYSEEELKESAGGSAGG [r6_586_TrROS_Hall],2.95 ± 0.17 kcal/mol,3.28 ± 0.15 kcal/mol,3.12 ± 0.16 kcal/mol
